Key:
[1] = biological target: T1, cMet-Fc fusion protein (extracellular domain of the cMet receptor expressed as an Fc-fusion protein) (human, UniProt P08581 25-932); assay: phage ELISA, cMet-Fc vs TRAIL-Fc
T1 construct: extracellular domain; also called soluble cMet-Fc-fusion protein; soluble cMet receptor; not shown: Fc part
Method: Protein phage ELISAs using peptide-displaying phage isolates from the various selection campaigns were performed to determine specificity of the peptides for cMet versus an unrelated Fc-fusion protein (TRAIL-Fe). Briefly, 384-well plates were coated overnight at 4 C with 0.5 μg/mL of cMet-Fc fusion protein or TRAIL-Fc fusion protein (background). The plates were blocked for 2 hours 37 C with 3% (w/v) BSA in PBS containing 0.05% (v/v) Tween-20 (PBST). The plates were washed with PBST and 100 μL of peptide-displaying phage were added to each well. The plates were incubated for 2 hours at room temperature and washed with PBST. cMet-binding peptide-displaying phage were detected using an HRP-conjugated anti-M13 antibody.

[2] = biological target: T2, human cMet expressed on 3T3 cells (human, UniProt P08581 25-1390); assay: whole cell phage ELISA, 3T3 human cMet vs 3T3
T2 construct: whole, on cells; cells fixed with glutaraldehyde; also called cell surface-expressed human cMet; 3T3 cells that over-express human cMet
T2 sequence (P08581 25-1390): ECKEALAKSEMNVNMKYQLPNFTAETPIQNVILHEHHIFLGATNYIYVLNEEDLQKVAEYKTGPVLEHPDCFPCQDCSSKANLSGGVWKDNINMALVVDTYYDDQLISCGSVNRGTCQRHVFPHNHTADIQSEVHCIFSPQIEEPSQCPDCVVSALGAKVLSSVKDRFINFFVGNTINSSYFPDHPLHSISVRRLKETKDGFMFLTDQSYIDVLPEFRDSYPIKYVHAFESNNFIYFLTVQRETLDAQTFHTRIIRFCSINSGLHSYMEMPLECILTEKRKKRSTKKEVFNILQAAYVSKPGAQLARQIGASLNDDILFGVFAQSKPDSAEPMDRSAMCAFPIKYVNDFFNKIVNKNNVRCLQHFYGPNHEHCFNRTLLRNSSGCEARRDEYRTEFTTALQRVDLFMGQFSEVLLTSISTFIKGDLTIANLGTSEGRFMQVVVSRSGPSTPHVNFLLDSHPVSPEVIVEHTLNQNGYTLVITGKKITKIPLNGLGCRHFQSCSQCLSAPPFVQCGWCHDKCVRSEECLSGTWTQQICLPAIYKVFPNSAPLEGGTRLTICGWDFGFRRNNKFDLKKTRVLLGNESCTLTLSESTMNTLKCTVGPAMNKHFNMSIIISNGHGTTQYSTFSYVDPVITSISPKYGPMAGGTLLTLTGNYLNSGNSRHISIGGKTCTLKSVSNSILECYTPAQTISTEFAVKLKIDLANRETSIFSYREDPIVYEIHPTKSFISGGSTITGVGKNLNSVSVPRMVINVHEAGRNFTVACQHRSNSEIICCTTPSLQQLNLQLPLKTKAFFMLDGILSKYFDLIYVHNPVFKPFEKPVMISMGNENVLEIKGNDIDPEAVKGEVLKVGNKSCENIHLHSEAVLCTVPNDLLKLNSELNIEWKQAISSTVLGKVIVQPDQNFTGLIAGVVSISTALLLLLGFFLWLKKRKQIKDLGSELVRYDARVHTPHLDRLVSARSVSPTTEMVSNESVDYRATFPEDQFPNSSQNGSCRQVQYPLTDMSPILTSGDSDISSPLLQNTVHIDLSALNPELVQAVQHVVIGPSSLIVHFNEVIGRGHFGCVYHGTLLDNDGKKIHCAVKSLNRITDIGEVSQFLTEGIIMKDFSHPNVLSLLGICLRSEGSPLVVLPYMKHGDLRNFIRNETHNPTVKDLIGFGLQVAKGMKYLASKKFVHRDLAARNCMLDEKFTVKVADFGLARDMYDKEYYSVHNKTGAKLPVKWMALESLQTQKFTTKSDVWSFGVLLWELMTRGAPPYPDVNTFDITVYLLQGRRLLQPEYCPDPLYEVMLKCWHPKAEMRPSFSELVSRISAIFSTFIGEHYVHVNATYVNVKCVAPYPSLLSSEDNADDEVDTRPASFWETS
Method: Whole cell ELISAs were performed using 3T3 cells that over-express human cMet. […] Briefly, 96-well plates were seeded with 10⁵ cells per well. The plates were centrifuged for 5 minutes at 1600 rpm to pellet the cells. The resulting cell layer was fixed with 0.1% (v/v) glutaraldehyde for 12 minutes at 37 C. […] Peptide-displaying phage also were blocked in the above solution for 1 hour at 37 C. 100 μL of blocked phage was then added to each well and the plates were incubated for 1 hour at room temperature. The plates were washed with PBST. cMet-binding peptide-displaying phage were detected using an HRP-conjugated anti-M13 antibody.

[3] = biological target: T1, cMet-Fc fusion protein (extracellular …); assay: phage ELISA on cMet-Fc, competitor HGF 100 ng/mL
Method: (§1) These assays were conducted using the peptide-displaying phage discovered from the initial selection and screening campaigns using the first generation peptide libraries. Briefly, 96-well plates were coated overnight at 4 C with 0.5 μg/mL of cMet-Fc fusion protein or TRAIL-Fc fusion protein (background). The plates were blocked for 2 hours at 37 C with 3% BSA in PBST. […] This was followed by an addition of 30 μL of peptide-displaying phage overnight culture to each well. The plates were incubated for 2 hours at room temperature, washed with PBST and cMet-binding peptide-displaying phage was detected using an HRP-conjugated anti-M13 antibody.

[4] = biological target: T1, cMet-Fc fusion protein (extracellular …); assay: phage ELISA on cMet-Fc, competitor HGF 500 ng/mL
Method: as §1

T1 sequence (P08581 25-932): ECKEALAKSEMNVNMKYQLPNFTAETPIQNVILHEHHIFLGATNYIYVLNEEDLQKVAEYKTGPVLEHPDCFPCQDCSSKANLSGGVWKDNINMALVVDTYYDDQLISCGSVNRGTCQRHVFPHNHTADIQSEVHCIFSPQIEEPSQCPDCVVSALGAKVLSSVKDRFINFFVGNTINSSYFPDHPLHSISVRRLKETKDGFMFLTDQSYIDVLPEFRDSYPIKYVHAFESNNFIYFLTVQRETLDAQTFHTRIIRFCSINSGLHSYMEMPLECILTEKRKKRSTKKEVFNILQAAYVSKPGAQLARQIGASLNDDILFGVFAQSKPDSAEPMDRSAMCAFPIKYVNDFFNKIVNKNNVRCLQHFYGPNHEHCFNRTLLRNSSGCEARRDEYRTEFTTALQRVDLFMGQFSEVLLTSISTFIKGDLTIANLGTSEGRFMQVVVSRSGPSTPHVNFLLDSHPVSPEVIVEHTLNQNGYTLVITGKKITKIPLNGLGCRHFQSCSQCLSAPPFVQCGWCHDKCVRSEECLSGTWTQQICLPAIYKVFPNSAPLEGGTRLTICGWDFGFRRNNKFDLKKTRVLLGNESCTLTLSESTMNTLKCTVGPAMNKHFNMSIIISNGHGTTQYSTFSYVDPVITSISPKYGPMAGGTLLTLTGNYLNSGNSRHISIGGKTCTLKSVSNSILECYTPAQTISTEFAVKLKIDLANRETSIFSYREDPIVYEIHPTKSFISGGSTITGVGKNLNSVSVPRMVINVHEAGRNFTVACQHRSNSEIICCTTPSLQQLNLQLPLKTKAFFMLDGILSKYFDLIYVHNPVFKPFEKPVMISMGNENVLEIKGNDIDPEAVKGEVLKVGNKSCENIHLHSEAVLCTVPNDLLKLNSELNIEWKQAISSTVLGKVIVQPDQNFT

Row | Binder | Protein ELISA (fold over background) [1] [fold] | WC ELISA (fold over background) [2] [fold] | % of binding in the absence of HGF [3] [%] | % of binding in the absence of HGF [4] [%]
1 | AGETTCLGWPTFVCVDYGT [548-E08 peptide-displaying phage (SEQ ID NO: 063)] | 5.3 | 1.27 | 102 | 50
2 | AGHGTCRGWPTFECIYFGT [332-A05 peptide-displaying phage (SEQ ID NO: 064)] | 6 | 1.4 | 40 | 21
3 | GSFILCWWTFCDTNAP [569-C03 peptide-displaying phage (SEQ ID NO: 007)] | 3.4 | 1.3 | 95 | 89
4 | AGHAWCSGPPRFECWPPGT [329-D02 peptide-displaying phage (SEQ ID NO: 061)] | 3.2 | 1.27 | 53 | 31
5 | AGSFACKGPPTFACVEFGT [330-B07 peptide-displaying phage (SEQ ID NO: 053)] | 18.1 | 1.27 | 58 | 40
6 | AGWTHCIGPPTFECIPMGT [334-G06 peptide-displaying phage (SEQ ID NO: 052)] | 8 | 1.3 | 56 | 43
7 | AGNYFCAGSPSFSCYFMGT [330-C10 peptide-displaying phage (SEQ ID NO: 054)] | 13.4 | 1.33 | 48 | 25
8 | AGWISCAGPPTFACWPGGT [548-F06 peptide-displaying phage (SEQ ID NO: 056)] | 14.3 | 1.23 | 76 | 18
9 | AGDWICHGPPMFECEWVGT [547-H07 peptide-displaying phage (SEQ ID NO: 058)] | 15.9 | 1.17 | 60 | 45
10 | AGYTSCVGPPSFECTPYGT [323-A11 peptide-displaying phage (SEQ ID NO: 059)] | 21.2 | 1.43 | 41 | 18
11 | AGEWWCHGPPEFLCYWTGT [331-F01 peptide-displaying phage (SEQ ID NO: 072)] | 12.6 | 1.47 | 77 | 73
12 | AGTWHCAGPPWFTCYMDGT [551-B02 peptide-displaying phage (SEQ ID NO: 069)] | 9 | 1.3 | 69 | 43
13 | AGYSVCKGYPSFECAFFGT [336-D07 peptide-displaying phage (SEQ ID NO: 075)] | 5.8 | 1.33 | 44 | 37
14 | AGVNSCLGPPTFECYQMGT [332-C03 peptide-displaying phage (SEQ ID NO: 076)] | 5.7 | 1.2 | 37 | 95
15 | AGSWECTGPPSFHCQWYGT [551-G12 peptide-displaying phage (SEQ ID NO: 070)] | 3.9 | 1.37 | 88 | 46
16 | AGSWHCAGPPSFECWEFGT [331-G04 peptide-displaying phage (SEQ ID NO: 055)] | 18.3 | 1.47 | 56 | 36

Row | Binder | Protein ELISA (fold over background) [1] [fold] | WC ELISA (fold over background) [2] [fold] | % of binding in the absence of HGF [3] [%] | % of binding in the absence of HGF [4] [%]
17 | AGHWICVGPPTFSCQWHGT [330-G09 peptide-displaying phage (SEQ ID NO: 071)] | 13.5 | 1.4 | 42 | 26
18 | AGSIQCVGPPSFECTPYGT [335-D11 peptide-displaying phage (SEQ ID NO: 074)] | 6.7 | 1.37 | 56 | 37
19 | AGQFKCAGPPSFACWMTGT [333-F09 peptide-displaying phage (SEQ ID NO: 050)] | 14.8 | 1.43 | 52 | 32
20 | GSSTICPGTACVDHAP [574-H03 peptide-displaying phage (SEQ ID NO: 008)] | 3.2 | 1.27 | 88 | 18
21 | GSWIICWWDNCGSSAP [571-C05 peptide-displaying phage (SEQ ID NO: 001)] | 4.9 | 1.3 | 102 | 74
22 | GSEYSCRTSRCIFSAP [452-F01 peptide-displaying phage (SEQ ID NO: 006)] | 3.2 | 1.33 | 117 | 110
23 | AGFVNCKGPPTFECILTGT [538-F08 peptide-displaying phage (SEQ ID NO: 057)] | 12.3 | 1.23 | 55 | 43
24 | AGWFQCKGPPSFECERHGT [336-G04 peptide-displaying phage (SEQ ID NO: 051)] | 5.4 | 1.33 | 46 | 23
25 | AGYFECKGPPTFECWLSGT [333-H03 peptide-displaying phage (SEQ ID NO: 060)] | 8.1 | 1.43 | 55 | 37
26 | AGGWECTGPPWFQCGYYGT [334-C08 peptide-displaying phage (SEQ ID NO: 067)] | 8 | 1.47 | 70 | 57
27 | AGDIVCTGHPYFECWSWGT [333-C05 peptide-displaying phage (SEQ ID NO: 068)] | 6.3 | 1.33 | 83 | 66
28 | AGHYWCAGPPTFICMGPGT [550-C09 peptide-displaying phage (SEQ ID NO: 062)] | 10.2 | 1.4 | 25 | 25
29 | AGLPKCSGPPWFSCYYGGT [545-A09 peptide-displaying phage (SEQ ID NO: 066)] | 13.5 | 1.3 | 44 | 22
30 | AGDWHCQGPPAFMCWMIGT [330-C01 peptide-displaying phage (SEQ ID NO: 065)] | 4.7 | 1.3 | 58 | 43
31 | AGYWHCKGPPHFACEFHGT [331-D03 peptide-displaying phage (SEQ ID NO: 077)] | 5.5 | 1.4 | 64 | 55

Source: patent US20120039802A1 (published 2012)
